# Legend:
# [1] = target: T1, human TROP-2 on the surface of human cell lines (the AR52A301.5 antigen) (human, UniProt P09758 27-323); assay: flow cytometry, 20 micrograms/mL antibody, PL45 pancreatic cancer cells
# T1 construct: whole, on cells; The cell lines are not transfected; also called IDAC 141205-03 antigen; TROP-2 antigenic moiety
# T1 sequence (looked up): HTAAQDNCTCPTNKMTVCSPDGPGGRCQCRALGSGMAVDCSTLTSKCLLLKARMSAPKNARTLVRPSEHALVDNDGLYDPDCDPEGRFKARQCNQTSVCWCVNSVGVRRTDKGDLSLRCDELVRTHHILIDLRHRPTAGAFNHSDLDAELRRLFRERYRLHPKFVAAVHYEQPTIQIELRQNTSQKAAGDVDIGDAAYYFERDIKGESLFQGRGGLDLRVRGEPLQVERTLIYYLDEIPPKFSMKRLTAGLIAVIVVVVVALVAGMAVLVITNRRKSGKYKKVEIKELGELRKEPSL
# Experimental: (§1) All cell lines, except for the majority of ovarian cancer cell lines, were obtained from the American Type Tissue Collection (ATCC, Manassas, Va.).
# (§2) Cells were prepared for FACS by initially washing the cell monolayer with DPBS (without Ca⁺⁺ and Mg⁺⁺). Cell dissociation buffer (INVITROGEN, Burlington, ON) was then used to dislodge the cells from their cell culture plates at 37° C. After centrifugation and collection, the cells were resuspended in DPBS containing MgCl₂, CaCl₂ and 2 percent fetal bovine serum at 4° C. […] Flow cytometric acquisition of the cells was assessed by running samples on a FACSarray™ using the FACSarray™ System Software (BD Biosciences, Oakville, ON). The forward (FSC) and side scatter (SSC) of the cells were set by adjusting the voltage and amplitude gains on the FSC and SSC detectors.
# [2] = target: T1, human TROP-2 on the surface of human …; assay: flow cytometry, 20 micrograms/mL antibody, Hey ovarian cancer cells
# Experimental: as §2
# [3] = target: T1, human TROP-2 on the surface of human …; assay: flow cytometry, 20 micrograms/mL antibody, Hs888.Lu non-cancer lung cells (weaker binding)
# Experimental: as §2
# [4] = target: T1, human TROP-2 on the surface of human …; assay: flow cytometry, 20 micrograms/mL antibody, C-13 ovarian cancer cells
# Experimental: as §2
# [5] = target: T1, human TROP-2 on the surface of human …; assay: cell-based or functional assay
# [6] = target: T1, human TROP-2 on the surface of human …; assay: flow cytometry, 20 micrograms/mL antibody, OV2008 ovarian cancer cells
# Experimental: as §1, §2
# [7] = target: T1, human TROP-2 on the surface of human …; assay: flow cytometry, 20 micrograms/mL antibody, PC-3 prostate cancer cells
# Experimental: as §1, §2
# [8] = target: T1, human TROP-2 on the surface of human …; assay: flow cytometry, 20 micrograms/mL antibody, DU-145 prostate cancer cells
# Experimental: as §2
# [9] = target: T1, human TROP-2 on the surface of human …; assay: flow cytometry, 20 micrograms/mL antibody, Colo-205 colon cancer cells
# Experimental: as §2
# [10] = target: T1, human TROP-2 on the surface of human …; assay: flow cytometry, 20 micrograms/mL antibody, MDA-MB-468 breast cancer cells
# Experimental: as §2
# [11] = target: T1, human TROP-2 on the surface of human …; assay: flow cytometry, 20 micrograms/mL antibody, MCF-7 breast cancer cells
# Experimental: as §1, §2
# [12] = target: T1, human TROP-2 on the surface of human …; assay: flow cytometry, 20 micrograms/mL antibody, T.Tn esophageal cancer cells
# Experimental: as §2
# [13] = target: T1, human TROP-2 on the surface of human …; assay: flow cytometry, 20 micrograms/mL antibody, OVCAR-3 ovarian cancer cells (printed twice in the paragraph, once as OVAR-3)
# Experimental: as §1, §2
# [14] = target: T1, human TROP-2 on the surface of human …; assay: flow cytometry, 20 micrograms/mL antibody, OCC-1 ovarian cancer cells
# Experimental: as §1, §2
# [15] = target: T1, human TROP-2 on the surface of human …; assay: flow cytometry, 20 micrograms/mL antibody, DLD-1 colon cancer cells
# Experimental: as §2
# [16] = target: T1, human TROP-2 on the surface of human …; assay: flow cytometry, 20 micrograms/mL antibody, OVCA-429 ovarian cancer cells
# Experimental: as §1, §2
# [17] = target: T1, human TROP-2 on the surface of human …; assay: flow cytometry, 20 micrograms/mL antibody, NCI-H520 lung cancer cells (weaker binding)
# Experimental: as §1, §2
# [18] = target: T1, human TROP-2 on the surface of human …; assay: flow cytometry, 20 micrograms/mL antibody, BxPC-3 pancreatic cancer cells
# Experimental: as §2
# [19] = target: T1, human TROP-2 on the surface of human …; assay: flow cytometry, 20 micrograms/mL antibody, FaDu head and neck cancer cells
# Experimental: as §1, §2
# [20] = target: T1, human TROP-2 on the surface of human …; assay: flow cytometry, 20 micrograms/mL antibody, HT-29 colon cancer cells
# Experimental: as §2
binder,measurement,setting,value
"AR52A301.5 monoclonal antibody (hybridoma IDAC 141205-03) (antibody, mouse IgG1, V domains shown, Murine IgG1, kappa from the hybridoma; also called IDAC 141205-03 antibody) VH: EVQLQQSGPELVKPGASVKISCKASGYTFTDYNMHWVKQSHGKSLEWIGYIYPYNGGTGYNQRFKNKATLTVDISSSTAYMELRSLTSEDSAVYYCAREEDYYGFDYWGQGTTLTVSS VL: DVVMTQTPLSLPVSLGQDASISCRSSQSLVHSYGNTYLHWYLQKPGQSPKLLIYKVSNRFSGVPDRFSGSGSGTDFTLKISRVEAEDMGVYFCSQSTHVYTFGGGTKLEIK",mean fluorescence intensity fold increase above isotype control,[1],12.9 fold
same,mean fluorescence intensity fold increase above isotype control,[2],5.9 fold
same,mean fluorescence intensity fold increase above isotype control,[3],2.6 fold
same,mean fluorescence intensity fold increase above isotype control,[4],38.7 fold
same,cytotoxicity on OVCAR-3 cells relative to the positive control cycloheximide,[5],53 percent
same,mean fluorescence intensity fold increase above isotype control,[6],32.7 fold
same,mean fluorescence intensity fold increase above isotype control,[7],5 fold
same,mean fluorescence intensity fold increase above isotype control,[8],3.9 fold
same,mean fluorescence intensity fold increase above isotype control,[9],38.6 fold
same,mean fluorescence intensity fold increase above isotype control,[10],22.7 fold
same,mean fluorescence intensity fold increase above isotype control,[11],16 fold
same,mean fluorescence intensity fold increase above isotype control,[12],18.6 fold
same,mean fluorescence intensity fold increase above isotype control,[13],22.1 fold
same,mean fluorescence intensity fold increase above isotype control,[14],17.8 fold
same,mean fluorescence intensity fold increase above isotype control,[15],82.8 fold
same,mean fluorescence intensity fold increase above isotype control,[16],3.4 fold
same,mean fluorescence intensity fold increase above isotype control,[17],2.1 fold
same,mean fluorescence intensity fold increase above isotype control,[18],29.4 fold
same,mean fluorescence intensity fold increase above isotype control,[19],59.8 fold
same,mean fluorescence intensity fold increase above isotype control,[20],6.7 fold

# From US20070202043A1 (ARIUS RESEARCH, published 2007)
